This note sets out measurements from patent US12186436B2, “Triblock copolymer stabilizers for the formation of nanoparticles encapsulating soluble biologics, therapeutics, and imaging agents” (The Trustees of Princeton University, priority 2018, dated 2025).

The data set in a line: Release of biologic from nanoparticles in release buffer (fluorescence of soluble biologic after 100 kDa ultrafiltration). In kind it is physicochemical. To be noted: nanoparticles made by Process 2.

Experimental: Release can be studied by diluting the final concentrated nanoparticle solution after ultrafiltration into the desired release buffer. The solutions can then be incubated under the required conditions of temperature and agitation. A suitable method to separate nanoparticles from released biologic can be employed at periodic time points to evaluate the released fraction. In one embodiment, ultrafiltration with a 100 kDa molecular weight cut-off is used to separate released biologic from the nanoparticles containing biologic that is still encapsulated.
Residual acetone and unencapsulated biologic were removed by rinsing on a 100 kDa Amicon ultrafilter that had been pre-blocked to prevent non-specific adsorption. The nanoparticle solution was concentrated to around 15-20 mg/ml and rinsed with deionized water twice using a volume that was about 3-4 times the concentrated volume. The flow-through streams were analyzed by fluorescence to determine encapsulation efficiency. The nanoparticles were resuspended in the indicated release buffer and placed on a shaker table at 37° C. for release. […] Particle size was characterized by Dynamic Light Scattering (DLS) using a Zetasizer Nano ZS.
Temperature was controlled in the centrifugation process to either 5° C. or 20° C. […] The flow-through streams were analyzed by fluorescence to determine encapsulation efficiency. […]

On to lysozyme, for which the “time for lysozyme release to reach 90%” value lay in the range of 20 to 30 h.
